Assay results from patent US6984719B1, “Peptide antagonists of prostaglandin F2α receptor” (Hospital Sainte-Justine, priority 1998, dated 2006).
pIC50: −log10 of the molar value. Square brackets hold non-standard residues; d marks the D form. Ends that are not written are not given here.

Key:
FP receptor = molecular target: T1, FP receptor (Sus scrofa, UniProt C6GAG8); assay: Porcine eyecup model of ex vivo vasomotricity assay, PGF2α-induced constriction of retinal microvessels; design: species or system pig; settings: for change of inhibitory activity of the peptide variant relative to the parent peptide: peptides at 100 μM, porcine retinal vasomotricity assay, structure-activity summary; for % Vasomotor response (of max constriction): compared to maximal constriction without peptide
T1 construct: from tissue; host or cells: eyecup / retinal microvessels of newborn pigs pretreated with ibuprofen
T1 sequence (C6GAG8 1-362): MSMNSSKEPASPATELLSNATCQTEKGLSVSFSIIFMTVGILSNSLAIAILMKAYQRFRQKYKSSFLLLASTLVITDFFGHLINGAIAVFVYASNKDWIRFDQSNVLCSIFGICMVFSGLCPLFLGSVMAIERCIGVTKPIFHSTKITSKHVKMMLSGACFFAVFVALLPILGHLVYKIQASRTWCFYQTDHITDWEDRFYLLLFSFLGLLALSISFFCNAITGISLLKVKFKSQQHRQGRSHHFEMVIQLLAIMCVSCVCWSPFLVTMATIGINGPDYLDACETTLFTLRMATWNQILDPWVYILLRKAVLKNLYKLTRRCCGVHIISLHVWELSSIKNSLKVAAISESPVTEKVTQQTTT
Description: In order to see if the peptides could inhibit FP function using an ex vivo model, we chose porcine eyecup model, an ex vivo assay of vascular constriction in porcine retinas which we previously described and validated (Li et al., 1996 J. Pharmacol. Expt. Therapeut. 278: 370–377; Li et al., 1997 Am. J. Physiol. 273: R1283–90; Abran et al., 1997 Am. J. Physiol. 272: R995–1001). Since FP receptor densities in newborn vasculature are minimal due to down regulation by high levels of circulating prostaglandins in the perinatal period, the newborn pigs were treated with a prostaglandin synthetase blocker, ibuprofen (30 mg/Kg of bodyweight/8 h for 24 h) to increase the density of the receptors as well as their vasomotor effects. By inhibiting circulating prostaglandins, we were able to show potent inhibition of FP receptor-mediated second messenger synthesis as well as FP-mediated vascular constriction in this eyecup model.
To prepare eyecups, a circular incision was made 3–4 mm posterior to ora serrata to remove the […] segment and vitreous body with minimal handling of the retina. The remaining eyecup was fixed with pins to a wax base in a 20 ml tissue bath containing 20 ml of Kreb's buffer (pH 7.35–7.45), protease inhibitors, leupetin and aprotinin (10 μg/ml each), and equilibrated with 21% oxygen and 5% carbon dioxide at 37° C. The preparations were allowed to stabilize for 30 min. Peptides at 100 μM were added and incubation was continued for 30 min before the addition of PGF2α.
Cumulative concentration-responses of PGF2α, and TxA2 mimetic, U46619, (10^−10 to 10^−5 M) curves were constructed separately. To assess the reversibility of the antagonists, the eyecups were thoroughly washed (which would wash away the peptide) with incubation medium and concentration response curves for PGF2α were determined. The outer vessel diameter was recorded with a video camera mounted on a dissecting microscope (Zeiss M 400™) and the responses were quantified by a digital image analyzer (Sigma Scan Software, Jandel Scientific, Corte Madera, Calif.). Vascular diameter was recorded before and 10 min following the topical application of the agent.
^1Percent vasomotor response in the presence of 100 μM peptide is calculated as percent change in average vascular diameter produced by 10^−7 M PGF2α to the eyecup in the presence of the peptide compared to maximal constriction observed in the absence of the peptide.
^2Percent inhibition produced by each peptide is calculated as (100-percent vasomotor response).
Small letters indicate L-amino acids and capital letters indicate D-amino acids. I=isoleucine; L=leucine; G=glycine; H=histidine; R=Arginine; D=Aspartic acid; Y=Tyrosine; K=Lysine; A=Alanine; W=Tryptophan; E=Glutamic acid; F=Phenyl alanine; Q=Glutamine; N=Aspargine; P=Proline; S=Serine; X=Cyclohexyl alanine. Peptides were dissolved in DMSO freshly just before the experiment as 10 mM stocks and added to the eye cups 30 min before the addition of 10^−7 M PGF2α.
These peptides incorporate L- to D-amino acid changes, deletions, subtle variations in aromaticity, hydrogen bond donor status as opposed to ionic interactions and hydrophobicity.

human FP receptor = molecular target: T2, human FP receptor (Homo sapiens, UniProt P43088); assay: PGF2α-induced phosphoinositide hydrolysis (inositol phosphate synthesis) in HEK293 cells expressing FP receptor; format: cell-based; settings: HEK293 cells stably expressing human FP receptor; 1 μM PGF2α; read-out: half maximal inhibitory concentration, inositol phosphate synthesis
T2 construct: expressed in transfected cells
T2 sequence (P43088 whole entry): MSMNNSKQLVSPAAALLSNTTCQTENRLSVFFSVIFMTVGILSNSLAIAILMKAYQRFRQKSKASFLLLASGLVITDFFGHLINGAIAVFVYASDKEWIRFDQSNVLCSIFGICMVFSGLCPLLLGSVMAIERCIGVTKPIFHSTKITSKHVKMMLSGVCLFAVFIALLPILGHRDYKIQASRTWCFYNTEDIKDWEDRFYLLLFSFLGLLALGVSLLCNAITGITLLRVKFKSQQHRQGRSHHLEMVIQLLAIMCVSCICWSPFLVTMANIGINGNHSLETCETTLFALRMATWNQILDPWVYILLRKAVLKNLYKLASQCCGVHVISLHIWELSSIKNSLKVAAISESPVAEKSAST
Procedure: Both PCP-8 and -10 were tested in HEK293 cells expressing the human FP receptor. For this purpose, HEK 293 cells stably expressing human FP receptor were plated in 12-well plates in DMEM medium containing 10% fetal bovine serum, penicillin (10 U/ml) and streptomycin (10 μg/ml) and cultured in a humidified atmosphere containing 5% CO2 at 37° C. After the wells were 80% confluent, the cells were labeled with 2 μCi/ml of [^3H]-myo inositol overnight. Next day, the cells were washed once with PBS, and incubated in 0.5 ml of Kreb's buffer containing 10 mM LiCl and indicated concentrations of PCP peptides for 30 min. PGF2α at 1 μM was added to the cells and the incubation was carried out for an additional 30 min. The cells were solubilized with 0.1 N NaOH for 10 min and neutralized with 0.1 N formic acid. The lysates were collected and 1 ml each of methanol and chloroform were sequentially added and vortexed briefly. After centrifugation to separate the phases, inositol phosphates were separated by ion exchange chromatography as described below (Berridge, M. J. et al., 1983, Biochem. J. 212:473–482).
Briefly, the medium was discarded and the IP3 synthesis was stopped by adding 0.6 ml ice-cold methanol. The cells were scraped and collected into polypropylene tubes. Distilled water (0.5 ml) and chloroform (0.6 ml) were added and vigorously vortexed for 2 min. The phases were separated by centrifugation at 6000×g for 10 min. The aqueous phase was applied to AG-1X-8™ (Formate form) anion exchange columns (1 ml bed volume) and free inositol was eluted with 10 ml of water, followed by 60 mM ammonium formate in 0.1 M formic acid. Then, the inositol phosphates were eluted with 5 ml of 1.2 M ammonium formate in 0.1 M formic acid. After adding 3 volumes of scintillation cocktail (Optiphase-HiSafe III), the eluates were counted by scintillation spectrophotometry.
Data are expressed as fold stimulation of inositol phosphate synthesis by 1 μM PGF2α compared to the unstimulated controls. […] The half maximal inhibitory concentrations for both PCP-8 and -10 were slightly less than 100 μM.

[1] = 100 μM peptide, 10^−7 M PGF2α, calculated as 100-percent vasomotor response

Row | change of inhibitory activity of the peptide variant relative to the parent peptide (FP receptor) | % inhibition of maximal response (FP receptor; [1]) | % Vasomotor response (of max constriction) (FP receptor; 100 μM peptide, 10^−7 M PGF2α) | Emax (FP receptor; 100 μM peptide, 10^−7 M PGF2α, calculated as 100-percent vasomotor response, read-out: % inhibition of maximal response) | pIC50 (human FP receptor) | Substance
1 | complete loss of activity | – | – | – | – | PCP-13.9: PCP-13 with terminal lysine substituted with W ([dI][dL]G[dH][dR][dD][dY][dW])
2 | moderate loss of activity | 59.7% | 40.3% | – | – | ILGHRNYK (Peptide antagonist derived from the sequence of the Prostaglandin F2-alpha receptor.) [PCP-13.14]
3 | loss of activity | 53.2% | 46.8% | – | – | ILaHRDYK ([dI][dL]A[dH][dR][dD][dY][dK]; not fully specified (residue 3); printed as ILaHRDYK) [PCP-13.8]
4 | – | – | 20.0% | 80% | > 4.00 | WEDRFYLL [PCP-10, wedrfyll]
5 | drastic loss of activity | – | – | – | – | PCP-13.19: PCP-13 with a serine substitution of D ([dI][dL]G[dH][dR][dS][dY][dK])
6 | – | 88.1% | 11.9% | – | – | SNVLCSIF (Peptide antagonist derived from the sequence of the Prostaglandin F2-alpha receptor.) [PCP-15]
7 | moderate gain of activity | 50.4% | 49.6% | – | – | ILGHRDY-amide ([dI][dL]G[dH][dR][dD][dY]-NH2) [PCP-13.20]
8 | complete loss of activity | – | – | – | – | PCP-13.15: PCP-13 with deletion of terminal lysine ([dI][dL]G[dH][dR][dD][dY])
9 | does not change the activity | 76.2% | 23.8% | – | – | ILAHRDYK (Peptide antagonist derived from the sequence of the Prostaglandin F2-alpha receptor.) [PCP-13.7]
10 | – | 64.0% | 36.0% | – | – | YQDRFYLL (Peptide antagonist derived from the sequence of the Prostaglandin F2-alpha receptor.) [PCP-14]
11 | loss of half of the inhibitory activity | – | – | – | – | PCP-13.12: PCP-13 with D changed to E ([dI][dL]G[dH][dR][dE][dY][dK])
12 | loss of activity | – | – | – | – | PCP-13.17: PCP-13 with the glycine residue deleted ([dI][dL][dH][dR][dD][dY][dK])
13 | loss of activity | – | – | – | – | PCP-13.16: PCP-13 with glycine changed to proline ([dI][dL][dP][dH][dR][dD][dY][dK])
14 | moderate gain of activity | 53.8% | 46.2% | – | – | ILGHRDYK-amide ([dI][dL]G[dH][dR][dD][dY][dK]-NH2) [PCP-13.21]

Row | Substance | change of inhibitory activity of the peptide variant relative to the parent peptide (FP receptor) | % inhibition of maximal response (FP receptor; [1]) | % Vasomotor response (of max constriction) (FP receptor; 100 μM peptide, 10^−7 M PGF2α) | Emax (FP receptor; 100 μM peptide, 10^−7 M PGF2α, calculated as 100-percent vasomotor response, read-out: % inhibition of maximal response) | pIC50 (human FP receptor)
15 | ILGHRDYK (Peptide antagonist derived from the sequence of the Prostaglandin F2-alpha receptor.) [PCP-13] | increased the inhibitory potency dramatically | 80.0% | 20.0% | – | –
16 | PCP-12: PCP-10 with the N-terminal hydrophobic dipeptide sequence removed (DRFYLL) | significant reduction in the inhibitory action | – | – | – | –
17 | ILGHQDYK (Peptide antagonist derived from the sequence of the Prostaglandin F2-alpha receptor.) [PCP-13.18] | affected the activity of PCP-13 moderately | 70.0% | 30.0% | – | –
18 | PCP-11: PCP-8 with the N-terminal hydrophobic dipeptide sequence removed (GHRDYK) | significant reduction in the inhibitory action | – | – | – | –
19 | ILGWRDYK (Peptide antagonist derived from the sequence of the Prostaglandin F2-alpha receptor.) [PCP-13.22] | did not result in significant reduction of peptide inhibitory potency | 83.4% | 16.6% | – | –
20 | PCP-13.10: PCP-13 with aromatic residue Y substituted with E ([dI][dL]G[dH][dR][dD][dE][dK]) | completely abolished the inhibitory potency | – | – | – | –
21 | PCP-13.23: PCP-13 with H changed to Y ([dI][dL]G[dY][dR][dD][dY][dK]) | significant reduction of peptide inhibitory potency | – | – | – | –
22 | ILGFRDYK (Peptide antagonist derived from the sequence of the Prostaglandin F2-alpha receptor.) [PCP-13.11] | did not result in significant reduction of peptide inhibitory potency | 87.0% | 13.0% | – | –
